In the data set the target is M-L3-IL12 (masked mouse IL-12 whose linker contains 3 repeats of LSGRSDNH) (UniProt Q60837).
M-L3-IL12 (masked mouse IL-12 whose linker contains 3 repeats of LSGRSDNH), sequence (Q60837 whole entry, looked up): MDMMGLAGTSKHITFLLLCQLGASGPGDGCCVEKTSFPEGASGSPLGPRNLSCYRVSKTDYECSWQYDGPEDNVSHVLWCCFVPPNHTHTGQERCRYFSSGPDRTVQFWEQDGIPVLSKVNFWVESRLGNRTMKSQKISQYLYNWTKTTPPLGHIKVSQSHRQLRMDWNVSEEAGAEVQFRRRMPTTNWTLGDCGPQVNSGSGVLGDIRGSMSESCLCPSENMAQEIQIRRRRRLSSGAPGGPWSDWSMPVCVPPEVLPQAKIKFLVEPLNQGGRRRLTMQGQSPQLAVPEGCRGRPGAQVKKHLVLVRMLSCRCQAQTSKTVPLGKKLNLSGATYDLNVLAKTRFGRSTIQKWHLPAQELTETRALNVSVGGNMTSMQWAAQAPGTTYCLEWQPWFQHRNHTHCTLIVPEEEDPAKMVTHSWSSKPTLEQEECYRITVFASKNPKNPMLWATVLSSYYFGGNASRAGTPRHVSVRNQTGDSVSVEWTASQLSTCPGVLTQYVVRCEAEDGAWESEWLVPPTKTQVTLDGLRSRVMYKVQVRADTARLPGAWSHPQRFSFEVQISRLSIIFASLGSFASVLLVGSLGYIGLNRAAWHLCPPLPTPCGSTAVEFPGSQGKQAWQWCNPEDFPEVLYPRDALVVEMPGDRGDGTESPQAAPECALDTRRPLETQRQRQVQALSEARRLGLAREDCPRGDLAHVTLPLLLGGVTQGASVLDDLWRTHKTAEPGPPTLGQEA

“recombinant human urokinase plasminogen activator”: the “in vitro cleavage, 30 min at 37° C., SDS-PAGE” value is “Decrease of molecular weight from ˜105 kDa to ˜60 kDa indicates proteolytic cleavage of IL12Rβ1-VP-IL12 and IL12Rβ1-LS-IL12”.

The values are drawn from patent US20240228586.
